In PMC12102759 (2025):

B1: SH3BP2 peptide 408-423 (SH3 domain-binding protein 2), 16-mer library wild type / TNKS ANK (TNKS 12 ANK repeats, residues 174-649) (parent complex)
chain 1: PQLPHLQRSPPDGQSF
chain 2: TGVPAVSGALRELLEACRNGDVSRVKRLVDAANVNAKDMAGRKSSPLHFAAGFGRKDVVEHLLQMGANVHARDDGGLIPLHNACSFGHAEVVSLLLCQGADPNARDNWNYTPLHEAAIKGKIDVCIVLLQHGADPNIRNTDGKSALDLADPSAKAVLTGEYKKDELLEAARSGNEEKLMALLTPLNVNCHASDGRKSTPLHLAAGYNRVRIVQLLLQHGADVHAKDKGGLVPLHNACSYGHYEVTELLLKHGACVNAMDLWQFTPLHEAASKNRVEVCSLLLSHGADPTLVNCHGKSAVDMAPTPELRERLTYEFKGHSLLQAAREADLAKVKKTLALEIINFKQPQSHETALHCAVASLHPKRKQVTELLLRKGANVNEKNKDFMTPLHVAAERAHNDVMEVLHKHGAKMNALDTLGQTALHRAALAGHLQTCRLLLSYGSDPSIISLQGFTAAQMGNEAVQQILSESTPIRTSD
B2: AXIN1 peptide 237-252 (Axin-1), 16-mer library wild type / PP2A B56 (PPP2R5A B56 domain, residues 1-486) (parent complex)
chain 1: YLPTLNEDEEWKADQD
chain 2: not shown

Variants of: B1
Experiment: proteomic peptide phage display deep mutational scan (ProP-PD DMS): M13 P8 16-mer library selected against immobilised GST-tagged bait for four days (rounds), NGS of the eluted pools per day and pseudo-replica; bait immobilised on MaxiSorp plates (10 µg), library pre-cleared on GST, 2 h binding at 4 °C, five washes; one round per day, days 1-4; value from days 2 and 3

| Variant | screen value |
| --- | --- |
| chain 1 L6M | 0.000442 average fractional NGS count over selection days 2 and 3 (reads of this peptide / all reads for the bait, averaged over … |
| chain 1 L6Y | 0.000851 average fractional NGS count over selection days 2 and 3 (reads of this peptide / all reads for the bait, averaged over … |
| chain 1 Q2T | 0.000819 average fractional NGS count over selection days 2 and 3 (reads of this peptide / all reads for the bait, averaged over … |

Variants of: B2
Experiment: as above

| Variant | screen value |
| --- | --- |
| chain 1 E10H | 0.000923 average fractional NGS count over selection days 2 and 3 (reads of this peptide / all reads for the bait, averaged over … |
| chain 1 K12T | 0.00858 average fractional NGS count over selection days 2 and 3 (reads of this peptide / all reads for the bait, averaged over … |
| chain 1 D8M | 0.000462 average fractional NGS count over selection days 2 and 3 (reads of this peptide / all reads for the bait, averaged over … |
| chain 1 E9Y | 0.0102 average fractional NGS count over selection days 2 and 3 (reads of this peptide / all reads for the bait, averaged over … |
| chain 1 D14R | 0.0071 average fractional NGS count over selection days 2 and 3 (reads of this peptide / all reads for the bait, averaged over … |
| chain 1 E9F | 0.00128 average fractional NGS count over selection days 2 and 3 (reads of this peptide / all reads for the bait, averaged over … |
| chain 1 E9K | 0.00203 average fractional NGS count over selection days 2 and 3 (reads of this peptide / all reads for the bait, averaged over … |
| chain 1 E10Q | 0.000224 average fractional NGS count over selection days 2 and 3 (reads of this peptide / all reads for the bait, averaged over … |
| chain 1 K12A | 0.00844 average fractional NGS count over selection days 2 and 3 (reads of this peptide / all reads for the bait, averaged over … |
| chain 1 E9L | 0.000568 average fractional NGS count over selection days 2 and 3 (reads of this peptide / all reads for the bait, averaged over … |
| chain 1 D14M | 0.0116 average fractional NGS count over selection days 2 and 3 (reads of this peptide / all reads for the bait, averaged over … |
| chain 1 Q15Y | 0.00911 average fractional NGS count over selection days 2 and 3 (reads of this peptide / all reads for the bait, averaged over … |
| chain 1 E10G | 0.00014 average fractional NGS count over selection days 2 and 3 (reads of this peptide / all reads for the bait, averaged over … |
| chain 1 E10S | 0.000255 average fractional NGS count over selection days 2 and 3 (reads of this peptide / all reads for the bait, averaged over … |
| chain 1 K12M | 0.000504 average fractional NGS count over selection days 2 and 3 (reads of this peptide / all reads for the bait, averaged over … |
| chain 1 D14W | 0.0112 average fractional NGS count over selection days 2 and 3 (reads of this peptide / all reads for the bait, averaged over … |
| chain 1 Q15I | 0.00307 average fractional NGS count over selection days 2 and 3 (reads of this peptide / all reads for the bait, averaged over … |
| chain 1 D8I | 0.000369 average fractional NGS count over selection days 2 and 3 (reads of this peptide / all reads for the bait, averaged over … |
| chain 1 N6D | 0.00102 average fractional NGS count over selection days 2 and 3 (reads of this peptide / all reads for the bait, averaged over … |
| chain 1 W11I | 0.000232 average fractional NGS count over selection days 2 and 3 (reads of this peptide / all reads for the bait, averaged over … |
| chain 1 W11Q | 0.000237 average fractional NGS count over selection days 2 and 3 (reads of this peptide / all reads for the bait, averaged over … |
| chain 1 P3H | 0.00026 average fractional NGS count over selection days 2 and 3 (reads of this peptide / all reads for the bait, averaged over … |
| chain 1 Q15D | 0.000993 average fractional NGS count over selection days 2 and 3 (reads of this peptide / all reads for the bait, averaged over … |
| chain 1 W11V | 0.000957 average fractional NGS count over selection days 2 and 3 (reads of this peptide / all reads for the bait, averaged over … |

| Variant | screen value |
| --- | --- |
| chain 1 D8N | 0.000367 average fractional NGS count over selection days 2 and 3 (reads of this peptide / all reads for the bait, averaged over … |
| chain 1 Q15K | 0.000314 average fractional NGS count over selection days 2 and 3 (reads of this peptide / all reads for the bait, averaged over … |
| chain 1 T4Y | 0.00014 average fractional NGS count over selection days 2 and 3 (reads of this peptide / all reads for the bait, averaged over … |
| chain 1 A13F | 0.000843 average fractional NGS count over selection days 2 and 3 (reads of this peptide / all reads for the bait, averaged over … |
| chain 1 N6R | 0.000965 average fractional NGS count over selection days 2 and 3 (reads of this peptide / all reads for the bait, averaged over … |
| chain 1 E9M | 0.00292 average fractional NGS count over selection days 2 and 3 (reads of this peptide / all reads for the bait, averaged over … |
| chain 1 A13Y | 0.00559 average fractional NGS count over selection days 2 and 3 (reads of this peptide / all reads for the bait, averaged over … |
| chain 1 Y1I | 0.00029 average fractional NGS count over selection days 2 and 3 (reads of this peptide / all reads for the bait, averaged over … |
| chain 1 K12G | 0.00482 average fractional NGS count over selection days 2 and 3 (reads of this peptide / all reads for the bait, averaged over … |
| chain 1 Q15H | 0.0369 average fractional NGS count over selection days 2 and 3 (reads of this peptide / all reads for the bait, averaged over … |
| chain 1 D14L | 0.00106 average fractional NGS count over selection days 2 and 3 (reads of this peptide / all reads for the bait, averaged over … |
| chain 1 D8W | 0.000322 average fractional NGS count over selection days 2 and 3 (reads of this peptide / all reads for the bait, averaged over … |
| chain 1 N6K | 0.0012 average fractional NGS count over selection days 2 and 3 (reads of this peptide / all reads for the bait, averaged over … |
| chain 1 N6V | 0.00339 average fractional NGS count over selection days 2 and 3 (reads of this peptide / all reads for the bait, averaged over … |
| chain 1 Y1P | 0.000164 average fractional NGS count over selection days 2 and 3 (reads of this peptide / all reads for the bait, averaged over … |
| chain 1 P3E | 0.000951 average fractional NGS count over selection days 2 and 3 (reads of this peptide / all reads for the bait, averaged over … |
| chain 1 A13M | 0.000333 average fractional NGS count over selection days 2 and 3 (reads of this peptide / all reads for the bait, averaged over … |
| chain 1 Y1M | 0.000646 average fractional NGS count over selection days 2 and 3 (reads of this peptide / all reads for the bait, averaged over … |
| chain 1 K12F | 0.00191 average fractional NGS count over selection days 2 and 3 (reads of this peptide / all reads for the bait, averaged over … |
| chain 1 E9D | 0.000572 average fractional NGS count over selection days 2 and 3 (reads of this peptide / all reads for the bait, averaged over … |
| chain 1 Q15M | 0.00211 average fractional NGS count over selection days 2 and 3 (reads of this peptide / all reads for the bait, averaged over … |
| chain 1 T4M | 0.000565 average fractional NGS count over selection days 2 and 3 (reads of this peptide / all reads for the bait, averaged over … |
| chain 1 Y1T | 0.00199 average fractional NGS count over selection days 2 and 3 (reads of this peptide / all reads for the bait, averaged over … |
| chain 1 Q15E | 0.00341 average fractional NGS count over selection days 2 and 3 (reads of this peptide / all reads for the bait, averaged over … |

| Variant | screen value |
| --- | --- |
| chain 1 D14H | 0.038 average fractional NGS count over selection days 2 and 3 (reads of this peptide / all reads for the bait, averaged over … |
| chain 1 P3Y | 0.000178 average fractional NGS count over selection days 2 and 3 (reads of this peptide / all reads for the bait, averaged over … |
| chain 1 T4V | 0.000271 average fractional NGS count over selection days 2 and 3 (reads of this peptide / all reads for the bait, averaged over … |
| chain 1 E9H | 0.000956 average fractional NGS count over selection days 2 and 3 (reads of this peptide / all reads for the bait, averaged over … |
| chain 1 D8V | 0.000175 average fractional NGS count over selection days 2 and 3 (reads of this peptide / all reads for the bait, averaged over … |
| chain 1 E10L | 0.00181 average fractional NGS count over selection days 2 and 3 (reads of this peptide / all reads for the bait, averaged over … |
| chain 1 A13W | 0.00128 average fractional NGS count over selection days 2 and 3 (reads of this peptide / all reads for the bait, averaged over … |
| chain 1 E10F | 0.000572 average fractional NGS count over selection days 2 and 3 (reads of this peptide / all reads for the bait, averaged over … |
| chain 1 D14K | 0.000793 average fractional NGS count over selection days 2 and 3 (reads of this peptide / all reads for the bait, averaged over … |
| chain 1 Q15W | 0.00273 average fractional NGS count over selection days 2 and 3 (reads of this peptide / all reads for the bait, averaged over … |
| chain 1 Y1N | 0.000299 average fractional NGS count over selection days 2 and 3 (reads of this peptide / all reads for the bait, averaged over … |
| chain 1 K12W | 0.0129 average fractional NGS count over selection days 2 and 3 (reads of this peptide / all reads for the bait, averaged over … |
| chain 1 D8L | 0.00362 average fractional NGS count over selection days 2 and 3 (reads of this peptide / all reads for the bait, averaged over … |
| chain 1 K12D | 0.000722 average fractional NGS count over selection days 2 and 3 (reads of this peptide / all reads for the bait, averaged over … |
| chain 1 E9G | 0.000581 average fractional NGS count over selection days 2 and 3 (reads of this peptide / all reads for the bait, averaged over … |
| chain 1 A13G | 0.000231 average fractional NGS count over selection days 2 and 3 (reads of this peptide / all reads for the bait, averaged over … |
| chain 1 W11Y | 0.000932 average fractional NGS count over selection days 2 and 3 (reads of this peptide / all reads for the bait, averaged over … |
| chain 1 D8K | 0.00103 average fractional NGS count over selection days 2 and 3 (reads of this peptide / all reads for the bait, averaged over … |
| chain 1 E9N | 0.000581 average fractional NGS count over selection days 2 and 3 (reads of this peptide / all reads for the bait, averaged over … |
| chain 1 Q15L | 0.00865 average fractional NGS count over selection days 2 and 3 (reads of this peptide / all reads for the bait, averaged over … |
| chain 1 A13S | 0.0021 average fractional NGS count over selection days 2 and 3 (reads of this peptide / all reads for the bait, averaged over … |
| chain 1 Y1R | 0.000195 average fractional NGS count over selection days 2 and 3 (reads of this peptide / all reads for the bait, averaged over … |
| chain 1 L2M | 0.000692 average fractional NGS count over selection days 2 and 3 (reads of this peptide / all reads for the bait, averaged over … |
| chain 1 K12I | 0.00212 average fractional NGS count over selection days 2 and 3 (reads of this peptide / all reads for the bait, averaged over … |
